Results published in patent US20250340659A1 (PETMEDIX, published 2025).
Like-named read-outs stand apart in the source and are kept apart here.

Legend:
[1] = target: T1, canine OX40L, full length membrane form, expressed on HEK293 cells (canine); assay: flow cytometry
T1 sequence: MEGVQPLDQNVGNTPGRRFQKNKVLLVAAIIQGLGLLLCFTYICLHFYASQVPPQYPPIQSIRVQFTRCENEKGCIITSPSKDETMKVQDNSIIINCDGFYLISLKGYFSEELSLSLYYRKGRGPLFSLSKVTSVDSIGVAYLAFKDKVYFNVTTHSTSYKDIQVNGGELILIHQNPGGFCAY

[2] = target: T1, canine OX40L, full length membrane form, expressed on HEK293 cells (canine); assay: flow cytometry, OX40L HEK minus WT HEK
[3] = target: T1, canine OX40L, full length membrane form, expressed on HEK293 cells (canine); assay: cell-based or functional assay
[4] = target: T2, canine OX40L, full length membrane form, expressed on HEK293 cells (canine); assay: flow cytometry
T2 construct: also called OX40L expressing HEK; HEK OX40L cells
T2 chain: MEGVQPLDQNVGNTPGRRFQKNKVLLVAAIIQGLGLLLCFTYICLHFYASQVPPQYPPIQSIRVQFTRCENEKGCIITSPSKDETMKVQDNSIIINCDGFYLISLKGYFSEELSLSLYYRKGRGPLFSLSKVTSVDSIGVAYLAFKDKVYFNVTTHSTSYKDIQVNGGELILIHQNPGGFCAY
Outline: (§1)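 CHO supernatants at 1, 5 or 10 μg/ml in PBS/3% FBS incubated 30′ on ice with cells surface-expressing canine OX40L. Bound antibody detected with fluorescent anti-canine Fc secondary (1:1000, 30 min, dark) and measured by flow cytometry, with parental WT HEK signal subtracted where stated.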

[5] = target: T3, recombinant canine OX40L ECD-TNCc-HIS protein (canine); assay: SPR Koff (kd1)
T3 construct: also called Trimeric OX40L probe (HIS tag); trimeric canine OX40L
T3 chain: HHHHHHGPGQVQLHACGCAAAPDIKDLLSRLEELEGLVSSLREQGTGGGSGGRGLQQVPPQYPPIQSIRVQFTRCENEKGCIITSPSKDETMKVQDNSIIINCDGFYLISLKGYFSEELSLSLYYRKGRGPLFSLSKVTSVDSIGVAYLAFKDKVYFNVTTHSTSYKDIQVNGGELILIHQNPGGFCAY
Outline: (§2)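 Purified antigen amine-coupled at low density to a CM5 chip; candidate antibodies injected as analyte over a concentration range. Kinetic curves fitted with a bivalent analyte model to give functional affinity and dissociation rates.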

[6] = target: T3, recombinant canine OX40L ECD-TNCc-HIS …; assay: SPR Koff (kd2)
Outline: as §2

[7] = target: T2, canine OX40L, full length membrane …; assay: cell-based or functional assay
[8] = target: T3, recombinant canine OX40L ECD-TNCc-HIS …; assay: SPR KD1, bivalent analyte model
Outline: as §2

[9] = target: T2, canine OX40L, full length membrane …; assay: flow cytometry, OX40L HEK minus WT HEK
Outline: as §1

neg CTR was tested, and the GEO mean OX40L expressing HEK [1] was 19600 and the GEO mean difference [2] was -4380.

B1: PMX106 (antibody, V domains shown)
VH: EVQLVESGGDLVKPGGSLRLSCVASGFTFSSYHMSWVRQAPGKGLQWVAYINSGGSSTSYADAVKGRFTISRDNAKNTLYLQMNSLRAEDTAVYYCAGFIWTHFDYWGQGTLVTVSS
VL: DIVMTQTPPSLSVSPRETASISCKASQSLLHSDGNTYLDWYLQKPGQSPQLLIYLVSNRFTGVSDRFSGSGSGTDFTLRISRVEANDTGVYYCGQGTQLWTFGAGTKVELK
In the case of B1, the GEO mean OX40L expressing HEK [1] is reported as 7760, the % Signal Inhibition Average [3] is reported as -17.2% and the % Signal Inhibition Rep1 [3] is reported as -9.89%. For the same molecule, the % Signal Inhibition Rep2 [3] was -4.12%, the % Signal Inhibition Rep3 [3] was -37.6% and the GEO mean difference [2] was 4100.

B2: PMX026 (antibody, V domains shown)
VH: EVHLVESGGDLVKPGGSLRLSCVASGFTFSSYHMSWVRQAPGKGLQWVAFINAGEISTNYADAVKGRFTISRDNAKNILYLQMNSLRAEDTAVYYCASGHIWIRPFDYWGQGTLVTVSS
VL: SYVLTQLPSMSVTLRQTARITCEGDSIGRKRVNWYQQKLGQVPVLIIYDDDSRPSGIPERFSGANSGNTATLTISGALAEDEAEYYCQVWDSSNNWVFGEGTQLTVL
notes: also called PMX26
B2 was tested, and the “GEO mean OX40L expressing HEK” value [4] was 1.39e+06, the koff [5] was 0.00191 s⁻¹ and the koff [6] was 0.00131 s⁻¹. For the same molecule, the “% Signal Inhibition Average” value [7] was 67.1%, the “% Signal Inhibition Rep1” value [7] was 67.6% and the “% Signal Inhibition Rep2” value [7] was 65.1%. The “% Signal Inhibition Rep3” value [7] was 68.7%, the Kd [8] was 903 nM and the GEO mean difference [9] was 1.36e+06.

B3: PMX043 (antibody)
heavy: EVQLVESGGDLVKPEGSLRLSCVVSGFTFSSYDMSWVRQAPGKGLQWVAYITNDGRYTSYTDAVKGRFTISRDNAKNTLYLQMNSLRTEDTAIYYCAKHGSSWSRGRFAMDYWGQGTSLFVSSASTTAPSVFPLAPSCGSTSGSTVALACLVSGYFPEPVTVSWNSGSLTSGVHTFPSVLQSSGLYSLSSMVTVPSSRWPSETFTCNVAHPASKTKVDKPVPKRENGRVPRPPDCPKCPAPESLGGPSVFIFPPKPKDTLLIARTPEVTCVVVDLGREDPEVQISWFVDGKQMQTAKTQPREEQFNGTYRVVSVLPIGHQDWLKGKQFTCKVNHIGLPSPIERTISKARGQAHQPSVYVLPPSREELSKNTVSLTCLIKDFFPPDIDVEWQSNGQQEPESKYRTTPPQLDEDGSYFLYSKLSVDKSRWQRGDTFICAVMHEALHNHYTQKSLSHSPGK
VL: SYVLTQLPSKNVTLNQPAHITCGGDSIGTKSVHWYQQKLGQAPVLIIFYDSSRPTGIPERFSGANSGNTATLTISGALAEDEADYYCQVWDSNASVFGGGTHLTVL
notes: also called PMX43
For B3, the “GEO mean OX40L expressing HEK” value [4] was 1.28e+06, the koff [5] was 0.00249 s⁻¹ and the koff [6] was 0.0022 s⁻¹. The “% Signal Inhibition Average” value [7] was 80.8%, the “% Signal Inhibition Rep1” value [7] was 69.2% and the “% Signal Inhibition Rep2” value [7] was 77.3%. For the same molecule, the “% Signal Inhibition Rep3” value [7] was 96.1%, the Kd [8] was 17 nM and the GEO mean difference [9] was 1.25e+06.

B4: PMX044 (antibody)
heavy: EVQLVESGGDPVKPEGSQRLSCVVSGFTFSSYDMSWVRQAPGKGLQWVAYITSDGRSTSYTDAVKGRFTISRDNARNTLFLQMNSLRTEDTAVYYCARHSSSWSRGRFGMDYWGHGTSLFVSSASTTAPSVFPLAPSCGSTSGSTVALACLVSGYFPEPVTVSWNSGSLTSGVHTFPSVLQSSGLYSLSSMVTVPSSRWPSETFTCNVAHPASKTKVDKPVPKRENGRVPRPPDCPKCPAPESLGGPSVFIFPPKPKDTLLIARTPEVTCVVVDLGREDPEVQISWFVDGKQMQTAKTQPREEQFNGTYRVVSVLPIGHQDWLKGKQFTCKVNHIGLPSPIERTISKARGQAHQPSVYVLPPSREELSKNTVSLTCLIKDFFPPDIDVEWQSNGQQEPESKYRTTPPQLDEDGSYFLYSKLSVDKSRWQRGDTFICAVMHEALHNHYTQKSLSHSPGK
VL: SYVLTQLPSKNVTLKQPAHITCGGDNIGSKSVHWYQQKLGQAPVLIIYYDSSRPTGIPERFSGANSGNTATLTISGALAEDEADYYCQVWDSSAGVFGGGTHLTVL
notes: also called PMX44
For B4, the “GEO mean OX40L expressing HEK” value [4] was 1.53e+06, the koff [5] was 0.000171 s⁻¹ and the koff [6] was 0.0598 s⁻¹. For the same molecule, the “% Signal Inhibition Average” value [7] was 75.1%, the “% Signal Inhibition Rep1” value [7] was 75.7% and the “% Signal Inhibition Rep2” value [7] was 66%. For the same molecule, the “% Signal Inhibition Rep3” value [7] was 83.6%, the Kd [8] was 8.23 nM and the GEO mean difference [9] was 1.5e+06.

B5: PMX046 (antibody)
heavy: EVQLVESGGDLVKPEGSLRLSCVVAGFTFNSYDMSWVRQAPGKGLQWVAYITSDGRFTSYTDAVKGRFTISRDNAKNTLYLQMSSLRTEDTAVYYCARHSSSWYRGRFGMDFWGHGTSLFVSSASTTAPSVFPLAPSCGSTSGSTVALACLVSGYFPEPVTVSWNSGSLTSGVHTFPSVLQSSGLYSLSSMVTVPSSRWPSETFTCNVAHPASKTKVDKPVPKRENGRVPRPPDCPKCPAPESLGGPSVFIFPPKPKDTLLIARTPEVTCVVVDLGREDPEVQISWFVDGKQMQTAKTQPREEQFNGTYRVVSVLPIGHQDWLKGKQFTCKVNHIGLPSPIERTISKARGQAHQPSVYVLPPSREELSKNTVSLTCLIKDFFPPDIDVEWQSNGQQEPESKYRTTPPQLDEDGSYFLYSKLSVDKSRWQRGDTFICAVMHEALHNHYTQKSLSHSPGK
VL: SYVLTQLPSKNVTLKQPAHITCGGDNIGSKSVHWYQQKLGQAPILIIYYDSSRPTGIPERFSGANSGNTATLTISGALAEDEADYYCQVWDSSASVFGGGTHLTVL
notes: also called PMX46
In the case of B5, the “GEO mean OX40L expressing HEK” value [4] is reported as 1.25e+06, the koff [5] is reported as 0.00101 s⁻¹ and the koff [6] is reported as 2.02e-05 s⁻¹. The “% Signal Inhibition Average” value [7] was 84.8%, the “% Signal Inhibition Rep1” value [7] was 84.8% and the “% Signal Inhibition Rep2” value [7] was 69.5%. The “% Signal Inhibition Rep3” value [7] was 100%, the Kd [8] was 40.4 nM and the GEO mean difference [9] was 1.22e+06.
